assay: yeast display, Sf9 membrane polyspecificity reagent, FACS + sequencing; frameworks hold sequencing errors
Outline: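 Synthetic nanobody libraries on Saccharomyces cerevisiae BJ5465 were galactose-induced for 36–48 hours, stained 1 hour at 4 °C with 10% biotinylated, detergent-solubilized Sf9 membrane reagent and enriched on streptavidin microbeads. FACS then separated cells into low and high (top ~1%) gates by anti-HA (expression) and streptavidin (reagent binding) fluorescence. Genes were colony-PCR amplified, MiSeq 2 × 250 sequenced and CDR-length filtered. A clone's polyreactivity label is that of its gate of origin.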

Sequence | polyreactivity (PSR sort gate)
QVQLVESGGCLVQAGGSLRLSCSASGSTITYYAMGWYRQAPGKERELVAAISGRGGRTDYADSVKGRFTISRDNAKNTVYLQMNSLKPEATAVYYCARAGRVQPGSEDDYWGQGTQVTVSS | high polyreactivity
QVQLVESGGCLVQAGGSLRLSCSSSGSTFEYNAIGWYRQAPGKERELVAAIRSSSSTHYADSVKGRFTISRDNAKNTVYLQMNSLKPEDTAVYYFNTDAHYYDHWGQGTQVTVSS | low polyreactivity
QVQLVESGGCLVQAGGSLRLSCSTSGSTFAVYVMGWSRQAPGKERELVAAISTSGARTYYADSVKGRFTISRDNAKNTDYLQMNSLKPEDTAVYYCAARGIYKSKYDYWGQGTQVSVSS | high polyreactivity
QVQLVESGGCLVQAGGSLRLSSPASGITFPDYDMGWYRQAPGKERELVAAITYRSGSTYYADSVKGRFTISRDNAKNTVYFQMNSLKPEDTAVYYCAAKRFLLRYYTKQYNYWGQGTQVTVSS | high polyreactivity
QVQLVESGGCLVQAGGSLRLTCAASGFIFPYYAMGWYRQAPGKERELVAGITGADSTYYADSVKGRFTISRDNAKNTVYLQMNSLKPEDTAVYYCARKRYSLSRTYNYGYWGQGTQVTVSS | high polyreactivity
QVQLVESGGCLVQAGGSLRLTCAASGRTFYRYAMGWSRQAPRKERELVAAITTSGGSTYYADSVKGRFTISRDNAMTTVFLQKNSLNPDDTEVYYCAATYYGYHIRDDYWGQGTQVTVSS | low polyreactivity
QVQLVESGGCLVQAGGSLSLSCAASGFTFSWNAMGWYRQAPGKERELVATITRSGSTYYADSVKGRFTISRDNAKNTVYLLMNSLKPEDTAVYYCAVVSWYRYSRYENDYWGQGTQVTVSS | high polyreactivity
QVQLVESGGCLVQAGRSLRLSCAASGSTFYYNAMAWYRQAPGKERELVAAITFTGGSTYADSVKGRFTISRDNAKNTVYFQMNSQKPEDTAVYYCAATIQGHDYLGTGYDYWGQGTQVTVSS | low polyreactivity
QVQLVESGGCLVQARGSLRLSCAASGFIFRSYAMGWYRPAPGKERELVAAISRSGGSTYYADSVKGRFTISRDNAKNTVYLQMNSLKPEDTAVYYCAAEYRIPYFFTYVYWGQGTKVTVSS | high polyreactivity
QVQLVESGGCLVQARGTLRLSCASSGRTIYLYAMPWYRQAPAKERELVAAITKSGGSTYYADSVKGRFTISRDIAMNTVYVQMNSLKPQDTAFYYCYKDLSSTNLDYWGQGTQFTVSS | low polyreactivity
QVQLVESGGCLVQEGGSLRLSCPASGSIFDDYAMGWYRQAPGKERELVAAISDSCGSTYYADSVKGRFTISRDNAKNTVYLQMNSLNQEDTAVYYCNADRDDDYDYWGEGTQVTVSS | low polyreactivity
QVQLVESGGCLVQSGGRLRLSCAASGRIFYPYVMGWYRQAPGKEREFVAAITRSGGSTNADSVKGLFTISRDNAKNTVYLLLNSLKPEDTAVYYCARRVNRRYPFYQRDYWGQGTQVTVSS | high polyreactivity
QVQLVESGGCLVQSGGSLRLSCAATGSTFGRNAMGWSRQAPGKESELVAAISRGGGITYYADSVKGRFTISRDNAKNTVYFQMNSLKPEDTAVYYCNAYLSKYFRYDYWGQGTQVTVSS | high polyreactivity
QVQLVESGGCSVQAGGSLRLSCAAAGRIFSYYAMGWYRQAPGKERELVAAITSGGRTYYADSVKGRFTISRDNAKTTVYLQMNSLKPEDTAVYYCAVGVRNQYYYWGQGTQVTVSS | high polyreactivity
QVQLVESGGDLVQAGGSLRLSCAASGITFRRYTMGWYRQAPGKERELVAAISSGGSTNYADSVKGRFTISRDNAKNTVYLQMNSLKPEDTAVYYCAATRRYIQYGYDYWGQGTQVTVSS | high polyreactivity
QVQLVESGGFLVQAGGSHRLSCAASGFTFQSNSMVWYRQAPGKERELVATITYSGGRTYYADSVKGRFTISRDNAKNTVYLQMNSLKPEDTAVYSCAARLAPLYRTYYYWGQGTQVTVSS | low polyreactivity
QVQLVESGGGEVQAGGSLRLSCAASGNIFVKYNMGWYRQAPGKERKLVAAIRWSGGTTNYADSVKGRFTISRDNAKSTVYLQMNSLKPEDTAVYYCNTGYWFFGYNEYDYWGQGTQVTVSS | low polyreactivity
QVQLVESGGGFDQARCSLRLSCPACASILREYAMGWYRQAPGKERELVATISRDGSTNYADSVKGRFTISRDNAKNTVYLQMNSLKPEDTAVYYCNTDLTYPYPNVEVLVYGFKLDYWGQGTQVTVSS | low polyreactivity
QVQLVESGGGFVQAGGSLRLSCAASGFTFKAYAMGLYRQAPGKERELVATINRSGTGTYYADSVKGRFTISRDYAKNTVYLLMNSLKPEDTAVYYCNKRSHHNYYTYDYWGQGTQVTVSS | high polyreactivity
QVQLVESGGGFVQAGGSLRLSCAASGRIFYGYAMGWYRQAPGKERELVAAISSGGITYYADSVKGRFTISRDNAKNTVYLQMNSLKPEDTAVYYCAADWAYYVASYLYYTFDYWGQGTQVTVSS | low polyreactivity
QVQLVESGGGFVQAGGSLRLSCAASGRTFRKYAMGWYRQAPGKERELVAAITSSGGSTYYADSVKGRFTISRDNAKNTVYLQMNSLKPEDTAVYYCAAGRHSEDNYWGQGTQVTVSS | high polyreactivity
QVQLVESGGGFVQAGGSLRLSCAASGRTFSYYAMGCYRQAPGKERELVASISGGGRTNYADSVKGRFTISRDNAKNTVYLQMNSLKAEDTAVYYCAARYEVRHTLYNYWGQGTQVTVSS | high polyreactivity

Sequence | polyreactivity (PSR sort gate)
QVQLVESGGGFVQAGGSLRLSCAASGRTFWNYAMGWYRPAPGKERELVAVIRFSDGSTYYADSVKGRFTISRDHAKNTVYLQMNSLKPEDTAVYYCAAKGPRRWGSGFDYWGQGTQVTVSS | low polyreactivity
QVQLVESGGGFVQAGGSLRLSCAASGSIFDPYAMGWYIQAPGKERELVAAINWSGDSTYYADSVKGRFTISRDNAKNTVYLQMYSLKPEDTAVYYCAADPTDDTHLYYYWRQGTQVTVSS | low polyreactivity
QVQLVESGGGFVQAGGSLRLSCAASGSIFDYYTMGWYRQAPGKERELVATIRSGDSTNYADSVKGRFTISRDNAKNTVYLPMNSLKPEDPAVYYCAADYGYQDDYWGQGTQVTVSS | low polyreactivity
QVQLVESGGGFVQAGGSLRLSCAASGSIFYTYVMGWYRQAPGKERELVAAITWSGGSTYYADSVKGRFTISRDNAKNTVYLQMNSLKPEDTAVYYCAAVRGYRSSKYDYWGQGTQVTVSS | high polyreactivity
QVQLVESGGGFVQAGGSLRLSCAASGSIIKRNAMGWYRQAPGKERELVASISSGGSTKYADSVKGRFTLSRDNAKNTVYLQMNSLKPEDTAVYYCAKRSSQTRRAYDYWGQGTQVTVSS | low polyreactivity
QVQLVESGGGFVQAGGSLRLSCAASGSTFAYYAMGWDRQAPGKERELVAAITRGGRTYYADSVKGRFTISRDNPKNTVYLQMNSQKPDDTAVYYCNARKYTWYSSRFIRFDYWGQGTQVTVSS | high polyreactivity
QVQLVESGGGFVQAGGSLRLSCAASGSTLPYYAMGWYRQAHGKERELVADITARGGTYYADSVKGRFTISRDNAKNTVYLQMNSLKPEDTAVYYCAAAYSLWQFYWDQGYDYWGQGTQVTVSS | high polyreactivity
QVQLVESGGGFVQAGGSLRLSCAASGVTYGGYAMGWYRQAPGKERELVAAITGSAGNTFYADSVKGRFTISRDNAKHTVYLQMNSLKPEDTAVYYCANTWYPWSRYGYYGRYDSWGLGTQVTVSS | low polyreactivity
QVQLVESGGGFVQAGGSLRLSCAASGYIFGIYAMGWYRQAPGKERELVAAISTSGGSTYYADSVKGRFTISRDNAKNTVYLQMNSLKPEDTAVYYCARPTTYGYYYWGQGTQVTVSS | high polyreactivity
QVQLVESGGGFVQAGGSLRLSCAAYGRTFGRYAMGWYRQAPGKERELVAAIRSGGSTYYADSVKGRFTISRDNAKNTVYLQMNSLKPEDTAVYYCAADIARHLTVFAYYRLDYWGQGTQVTVSS | low polyreactivity
QVQLVESGGGFVQAGGSLRLTCAASALTFQYNAMGWYRQAPGKETELVAAISRSGGRTYYADSVKGRFTISRDNAKNTVYLQMNSLKPEDTAVYYCARRGGVVYSSGYNYLGQGTQVTVSS | high polyreactivity
QVQLVESGGGFVQARGSLRLSCAASGSIFWLYAMGWYSQAPGKERELVAAISWSTGGTYYADSVKGRFTISRDNAKNTVYLQMNSQKPEDTAVYYCNKLWVGKFKRYEFGYWGQGTQVTVSS | low polyreactivity
QVQLVESGGGIDQAGGSLRLSCAASGSNFYTYAMGWYRQAPGKEREFVAAITRGGARTYYADSVKWRFTISRDNAKNTVYLQMNSLKPEDTAVYYCAKLGKATTQVGSDYWGQGTQVSVSS | low polyreactivity
QVQLVESGGGIDQAGGSLRLSCAASGSTFPRYAMGWYRQAPGKERELVAAISRSGGSTYYADSVKWRFTISRDNAKNTVDLQMNCLKPEDTAVYYCAGRYERGSYKYDYWGQGTEVTVSS | high polyreactivity
QVQLVESGGGIVHAGGSLRLSCAASGSTFDSYARGWYRQAPGKERELVAAITDSGSSTYYADSVKGRFTISRDNAKNTVYLQMNSLKPEDSAVYYCANYDYHGWSYYRYDYWGQGTQVTVSS | low polyreactivity
QVQLVESGGGIVQAGGILRLSSAASGRIFLGYAMGWSRQAPGKERELVASISGPAGSTNYADSVKGRFTISRDNAKNTVYLQMNSLKPEDTAVYYCAAEERYAYRYDYWGQGTQVTVSS | high polyreactivity
QVQLVESGGGIVQAGGRLRLRCAASGFTFGRYAMGWYRQEPGKEREFVAAITWSGGGTYYADSVKGRFTISRDNAKNTVYLQMNSLKPEDTAVYYCAADRRAYGGGYLGQGTQVTVSS | high polyreactivity
QVQLVESGGGIVQAGGRLRLSCAASGITFRFYAMGWYRQAPGKERELVAVISRGGGTTYYADSVKGRFTISRDNEKNTVYLEMNSLKPEDTEVFYCNAVFAWYRSDEYDYWGQGTLVTVSS | high polyreactivity
QVQLVESGGGIVQAGGRLRLSCAASGMIFYFYALGWYRPAPGKERELVAAITSGARTYYADSVKGRFTISRDNAKNTVYLQINSLKPEDTAVYYCAADVKRDRVWGGDYWGQGTQVTVSS | low polyreactivity
QVQLVESGGGIVQAGGRLRLSCAASGRTSAVNAMVWYRQAPGKERELVAAITKSGGRTYYADSEKGRFTISRDNAKNTVYLQMNSLKPEDTAVYYCATSLLSRYGMDYWGQGTQVTVSS | high polyreactivity
QVQLVESGGGIVQAGGSIRLSCAASGRIFRYYAMGWYRQAPGKERELVATISRSGGSTFYAESVKGRFTISRDNAKNTVYLQMNSLIPEDTAVYYCNARYQTGGYGYWGQGTQVTVSS | high polyreactivity
